According to paper PMC10482377, “Septum site placement in Mycobacteria – identification and characterisation of mycobacterial homologues of Escherichia coli MinD” (Microbiology, 2023):

Molecular target: T1, M. tb ParB with C-terminal 6xHis-tag (M. tuberculosis, UniProt P9WIJ9 1-344)
T1 construct: not shown: 6xHis, C-terminal, kept
T1 sequence: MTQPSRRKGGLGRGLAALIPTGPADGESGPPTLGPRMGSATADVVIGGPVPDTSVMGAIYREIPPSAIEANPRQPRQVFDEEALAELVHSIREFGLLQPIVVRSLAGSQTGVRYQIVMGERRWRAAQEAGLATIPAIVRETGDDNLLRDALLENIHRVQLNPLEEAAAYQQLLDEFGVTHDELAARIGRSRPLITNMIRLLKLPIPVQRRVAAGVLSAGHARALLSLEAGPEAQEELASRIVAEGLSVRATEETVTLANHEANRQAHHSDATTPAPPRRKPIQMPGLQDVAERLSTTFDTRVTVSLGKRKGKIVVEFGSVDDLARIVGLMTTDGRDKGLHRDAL
Test: pull-down; equimolar bait (GST-Rv1708) and prey (His-tagged) incubated O/N at 4 °C in PBS + 0.1 % Triton X-100, then GSH beads 4 h at 4 °C; washed; Western blot with anti-6xHis
Conditions: both partners purified

B1: GST-Rv1708 (natural protein)
chain: MPAGLPGQASVAVRLSCDVPPDARHHEPRPGMTDHPDTGNGIGLTGRPPRAIPDPAPRSSHGPAKVIAMCNQKGGVGKTTSTINLGAALGEYGRRVLLVDMDPQGALSAGLGVPHYELDKTIHNVLVEPRVSIDDVLIHSRVKNMDLVPSNIDLSAAEIQLVNEVGREQTLARALYPVLDRYDYVLIDCQPSLGLLTVNGLACTDGVIIPTECEFFSLRGLALLTDTVDKVRDRLNPKLDISGILITRYDPRTVNSREVMARVVERFGDLVFDTVITRTVRFPETSVAGEPITTWAPKSAGALAYRALARELIDRFGM
notes: also called M. tb minD; not shown: GST, N-terminal, kept
B1: binds.
